The values below come from patent EP0832971B1.

“And” between values parts separate entries of the source, which are not always exact repeats. Equal entries are not always repeated.

Assay [1] deals with HIV-1 strain HTLV-IIIB (virus grown in H9 cells; envelope glycoprotein gp120 on the virus) (HIV-1 strain HTLV-IIIB) (UniProt P04578). Briefly: cell-based or functional assay.
The target of assay [2] is gp120, the major envelope glycoprotein of HIV-I (radioiodinated 125I-gp120; unlabeled purified gp120) (HIV-1). In words: saturation binding of 125I-gp120 in solution, immunoprecipitation with OKT4, Scatchard analysis.

In general, Kd refers to the equilibrium constant for the complex coming apart. A lower Kd goes with a tighter complex. Take “CD4T (product of pRKCD4T: CD4 fused after residue 368 of mature CD4 to 9 residues coded by pBR322) (from UniProt P01730 26-393) (receptor)”: in assay [1], the Indirect immunofluorescence (% positive cells), 1:4 inhibitor supernatant (% positive cells) is 18 and 16.1; the Indirect immunofluorescence (% positive cells), undil. inhibitor supernatant (% positive cells) is 0.4 and 0.8; the Reverse transcriptase (cpm/ml x 10^5), 1:4 inhibitor supernatant is 594000 cpm/ml and 372000 cpm/ml; the Reverse transcriptase (cpm/ml x 10^5), undil. inhibitor supernatant was 11000 cpm/ml and 15000 cpm/ml. In addition, in assay [2], the Kd turned out to be 830 pM.

As for “gDCD4T (first 27 residues of mature HSV type I gD glycoprotein fused to mature CD4T; product of pRKGDCD4T) (from UniProt Q69091 1-27; P01730 1-368) (receptor)”, in assay [1], the Indirect immunofluorescence (% positive cells), 1:4 inhibitor supernatant (% positive cells) is 26.8 and 36.1; the Reverse transcriptase (cpm/ml x 10^5), 1:4 inhibitor supernatant was 992000 cpm/ml and 1.13e+06 cpm/ml; the Reverse transcriptase (cpm/ml x 10^5), undil. inhibitor supernatant was 14000 cpm/ml and 23000 cpm/ml. This substance also yielded a Kd in assay [2] of 720 pM.
